Test results: patent CN117603356A (HAIBO HUAJIAN HUZHOU PHARMACEUTICAL TECH CO LTD, dated 2024)

Molecular target: T1, Human-pIgR-ECD-his抗原重组蛋白 (human, UniProt P01833 19-638)
T1 construct: extracellular domain; Recombinant antigen coated on the ELISA plate (200 ng/well); also called PI蛋白; not shown: his tag
Assay: ELISA, antigen coated, anti-human IgG Fc HRP

T1 sequence (P01833 19-638): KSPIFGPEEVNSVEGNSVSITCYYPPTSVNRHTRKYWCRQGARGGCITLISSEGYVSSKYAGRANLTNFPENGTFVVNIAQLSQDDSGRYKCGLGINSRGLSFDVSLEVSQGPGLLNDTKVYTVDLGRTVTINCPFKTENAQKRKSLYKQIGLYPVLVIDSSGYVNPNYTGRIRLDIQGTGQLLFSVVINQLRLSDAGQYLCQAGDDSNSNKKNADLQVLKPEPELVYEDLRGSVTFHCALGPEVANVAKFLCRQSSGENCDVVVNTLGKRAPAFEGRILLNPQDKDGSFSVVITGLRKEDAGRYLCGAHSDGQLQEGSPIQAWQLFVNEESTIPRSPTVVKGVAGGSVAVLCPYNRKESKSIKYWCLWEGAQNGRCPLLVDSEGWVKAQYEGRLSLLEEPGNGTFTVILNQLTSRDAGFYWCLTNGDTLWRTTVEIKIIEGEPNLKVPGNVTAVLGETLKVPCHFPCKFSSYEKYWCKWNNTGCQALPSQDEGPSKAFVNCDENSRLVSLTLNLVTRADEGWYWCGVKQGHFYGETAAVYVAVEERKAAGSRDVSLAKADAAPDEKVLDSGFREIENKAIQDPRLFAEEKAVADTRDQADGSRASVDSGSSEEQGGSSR

Binder | binding result
PI-19-hFc (Fc fusion, VHH inserted into the pFCIG-hIgG1 plasmid, expressed in HEK293F; also called 单克隆PI-19-hFc; not shown: human IgG1 Fc fragment (hFC) from the bought expression plasmid pFCIG-hIgG1) EVQLVESGGGSVQAGGSLRLSCAASGITISNNCMGWFRQAPGKEREGVALLYSTSSTSSQKSHADSVKGRFTISRDNAKNTVYLQMNSLKPEDSAMYYCAAKSGVCRWNWEYGMDYWDWGKGTLVTISS | binds
PI-74-hFc (Fc fusion, VHH inserted into the pFCIG-hIgG1 plasmid, expressed in HEK293F; also called 单克隆PI-74-hFc; not shown: human IgG1 Fc fragment (hFC) from the bought expression plasmid pFCIG-hIgG1) EVKLVESGGGSVQAGGSLRLSCTASGPTYGRTCMGWFRQAPGREREGVATIETKGLTRYTYYADSVKGRFTISQDDAKNTLYLQMNSLKPEDTAMYYCAADGPGCSGGAFIARGRWYPHWGQGTQVTVSS | binds
PI-21-hFc (Fc fusion, VHH inserted into the pFCIG-hIgG1 plasmid, expressed in HEK293F; also called 单克隆PI-21-hFc; not shown: human IgG1 Fc fragment (hFC) from the bought expression plasmid pFCIG-hIgG1) QVKLVQSGGGLVQPGGSLRLSCAASGFTFENYAMGWLRQAPGEGLEWVSSINYNGDVTAYTTSVKGRFTVSRDNAKNTLYLQLNDLKIDDTAMYYCAKGRYGWALSREDYNTRGQGTQVTVSS | binds
PI-28-hFc (Fc fusion, VHH inserted into the pFCIG-hIgG1 plasmid, expressed in HEK293F; also called 单克隆PI-28-hFc; not shown: human IgG1 Fc fragment (hFC) from the bought expression plasmid pFCIG-hIgG1) EVKLVESGGGSVQAGGSLRLSCAASGYTYSSACMGWFRQAPGKERDWVALIDGIGSTTYTDSVKGRFTISQDNAKNTLYLQMNSLKPEDTATYYCAADLLSGGYCHPVGGGARDWGGPVVADFTYWGQGTQVTVSS | binds
